In the DeepSol protein solubility set:

Assay: soluble on expression in E. coli; label from the status in PepcDB or PDB records

| Sequence | soluble on expression in E. coli |
| --- | --- |
| MACAAARSPADQDRFICIYPAYLNNKKTIAEGRRIPISKAVENPTATEIQDVCSAVGLNVFLEKNKMYSREWNRDVQYRGRVRVQLKQEDGSLCLVQFPSRKSVMLYAAEMIPKLKTRTQLEHHHHHH | soluble |
| MADDSVLPSPSEITSLADSSVFDSKVAEMSKENLCLASTSNVDEEMPQVEARVIMVQDAGKQEELLKALKEMKVPCVKMDSMEEFESLDSPEFENIFVVTDFQNSVFNDLYKADCRIVGPPVILNCAQRGEPLPFSCRPLYCTSMLNLVLCFTGFRKKEELVKLVTLVHHMGGVIRKECNSKVTHLVANCTQGEKFRVAVSLGTPIMKPEWIYKAWERRNEQCFCAAVDDFRNEFKVPPFQDCILSFLGFSDEEKHSMEEMTEMQGGSYLPVGDERCTHLIVEENTVKDLPFEPSKKLFVVKQEWFWGSIQMDARAGETMYLYEKANTPELKKSVSLLSLSTPNSNRKRRRLKETLAQLSRETDLSPFPPRKRPSAEHSLSIGSLLDISNTPESSIHYGETPKSCAKSSRSSTPVPPKQSARWQVAKELYQTESNYVNILATIIQLFQVPLEEEGQRGGPILAPEEIKTIFGSIPDIFDVHMKIKDDLEDLIANWDESRSIGDIFLKYAKDLVKTYPPFVNFFEMSKEMIIKCEKQKPRFHAFLKINQAKPECGRQSLVELLIRPVQRLPSVALLLNDLKKHTADENPDKSTLEKAIGSLKEVMTHINEDKRKTEAQKQIFDVVYEVDGCPANLLSSHRSLVQRVETVSLGEHPCDRGEQVTLFLFNDCLEIARKRHKVIGTFRSPHDRTRPPASLKHIHLMPLSQIKKVLDIRETEDCHNAFALLVRPPTEQANVLLSFQMTSEELPKESWLKMLCRHVANTICKADAENLMYVADPESFEVNTKDMDSTLSRASRAIKKTSKKVTRAFSFSKTPKRALRMALSSSHSSEGRSPPSSGKLAVSRLSSTSSLAGIPSPSLVSLPSFFERRSHTLSRSTTHLI | soluble |
| MADEPLHYGEDYHFIHATSAASGLGVSVLPDLYCHTIQIVNICLVGRPDDHAFVLVDAGMPGSADDIVSVVEDRFGSGSRPQAIVLTHGHFDHVGAIVELVKHWNVPVYAHPAELPYLTGKASYPEPDASVEGGFIAKISPFFPNEPIQLGNRVQPLPADGTVPHLPEFRWIHTPGHTPGHISLFRPRDAALIAGDAFVTVRQDSLYKVLTQQIEISGPPRYYTIDWRAARESVRKLAALFPSVAITGHGAPVAGKELREGLTKLARDFDRIATPDYGKYVH | soluble |
| MADETELKRLYWHSRRGMLELDVLLVPFVQEVYPGLDAEDQARFRKLLECEDQDMFGWFMQRGEPEDADLRRMVRMILDRVQPD | not soluble |
| MADEVIEYKFICPNITIYRESLQHLYTSFAKGLKCVWKTRNTSGQTFFSWEFDLNELKNQGIDGLMGRISVNSDSIDLLNVQIDLKNSTEIIERVVHLYHNNYQYGYNYIPSATFEYSFVPYYAQAEGSLYDQMFLPSHENDAILVIGKKKLHVCKAFLSYHSSFFRAIFSSTFKEGQMSEIPIKDVTYKDFALMLSTIYPDAVFPNDRTAEKLLEMGDRFIIQSVINHVEYHLLHNTKIGNEKLMWMADRYGMSKLLVKSIRQMDSIEKAKALKSSPDYAKLSKEAKEKILDRLMALI | not soluble |
| MADGINSTVTVERSDGPRHRGTAAGIGGLDLDLEDVTHKELIEARRTGDVGLVHSWELVTAVDGPGTRMTMFMSGCPLRCLYCHNPDTMGMKEGTVERVESIVKKIKRYRNVFKASGGGLTISGGEPLFQIAFTRRVLKEVHDAGIHTTIDTSGYLGARLTDEDLENIDLVLLDVKSGDEETYHRVSGGRELQPTIDFGNRLNAIGKPVWIRFVLVPGVSDAPENINNVADIVAQWKDNVERVEVLPFHNMGADKWHELGLNYELEDTKPPTQESVEFAKETFRSRGLTVY | not soluble |
| MADKSTEVEKAIDPIIDLGNLLFIDREPIQGDASEGLEERARKNTQLLFNNIWQLEQKRVEEAIIVTLPPATYRLPREKRLPEKKEPTKWEKYAAEKGIEKRKKDKKVFDEATKEWKPTYGYRRGNDDTKDWLIEIPDNAEDPNKDFFAERREKKKERVAKNDMQRMKNLARQMKTTVKSGPSTEKMIGVGVDAKEKSKQQVRFAVDRAKLATASAGKFQEGLKGEKANVKTGKKRKFEANEAPVSGEKERALQILQRMKSKKAKIVEEKAAAVAGPLREKKEKSERKGAKDQTRQKSQIHRQQWFKNKVDGKKKGTGGAGKKGANKAKARKG | not soluble |
| MADRANNDDDVDRQPLPIADDADDDVDGIDEMFNNEDEDPEDEEGENLFGDDMERDYREQPELDQYSESGMDDASDVGSLSVSARRAAEREMAQRDQLLDDDALMYEDGDSEEVDTRRRGRGRRGRGDAADDDSVPMEEEDIPVDILENIRGRTIRDHVSDEAVAKEIERRFKNFLRSFHEPGNKQTKYIQMIKSMAADNRESLEVSFTDLSDDNGEQNISYFLPEAPNEMLAIMDRAATEVVMNMYPFYSRVCNEIKVRISQLPVEEDIRMLRQVHLNMLIRTAGVVTIASGILPQLAVVKYDCVACGYLLGPFVQQNDEEVRPTICPSCQGKGPFELNVENTVYHNYQRITMQESPNKVAAGRLPRSKDVILLGDLCDSCKPGDEIEVTGVYTNNFDGSLNYKQGFPVFNTLIHANHITNKDKMASDQLTDEDIKAIRELSQDPNISQRVFSSIAPSIYGHDDVKRAIALALFRGEAKNPGAKHRLRGDINVLLCGDPGTAKSQFLRYAAHIAPRSVLTTGQGASAVGLTAYVQRHPVTREWTLEAGAMVLADKGVCLIDEFDKMSDQDRTSIHEAMEQQSISISKAGIVTSLHARCTVIAASNPIGGRYNPTRTFAENVDLTEPILSRFDVLCVIRDSVDSVEDERLAKFVVGNHRTHHPDAKKIVKEGDELEEDQMDERTGVRLIPQDLLRKYIIYAREKCHPTLPEQHSEKFSNIFAQMRKESMATGSVAITVRHVESMIRLSEAHAKLHLRSYVNDEDCAAAIRVMLESFVNTQKASIMRMMKKTFSRHLTENRSANELLLFILKQLIRQQMHYATARAAAGTILQSVTIPESEFIEKAQQLRIENVKPFYTSEIFASNNFLYDPSKKTIVQEIF | not soluble |
| MADRGGFQSGFGGRGGGRGGARPAGDRPAGRGGRGGRGGRGGRGGRAGRGGEKETEWTPVTKLGRLVKEKKITTLEEIYLNSLPIKEFEIIDALCSNLKDEVLKISPVQKQTTAGQRTRFKAFVAIGDHAGHVGLGVKCSKEVATAIRGAIVAAKLAVVPVRRGYWGNKIGLPHTVPCKVTGKCASVMVRLIPAPRGTGIVSAPVPKKLLHMAGIEDCYTAAKGSTATLGNFAKATYAALQRTYSYLTPDLWKEEALEKSPYQRHHEYLARN | not soluble |
| MADRPIEIVDRQNVLTVHLPGTYTVMYDARYCYVSYIPVSETVAEFTLTGFKYPLTNCHISRGSTLCISNELIQSSGTFSFSEGILMMIRSSDSLEHHHHHH | not soluble |
| MADRRRTDDNKGAREVVLLLNIGSPDSPEEKDVARYLNSFLTDRRIITLPFLLRQLLVRGIITPFRKKSSAQKYRTVWDESTRSFPLISHTKAIARALAHTGREVHVAMRYGKPAVADVLKELPHGRSLVVLPLFPHYAMSSYETAVEHCKAEIRRLCPNLSFRVVQPFYAHEAYIRVLADNIRPYLTKPFDKLILSYHGIPRDHLDKTTRQALNLRHPEGCCTEEDPTANVCYRYQTYRTTALIREALGLAEEQVEQVFQSRVGHTEWLRPYLIERLSAWPQEETKRILIACPSFVCDCLESLEEVADHGQSIFKKAGGADFTYIPCLNSGANWIDALRNILEE | not soluble |
| MADSIASIGNRYIDNNDTDMHFLRTWAVRRCQHTDWDICERIRLGELKEARDRAAQMEKTMRWWSSCTADWRNRWSAVRDERNRAREEAETLRLNYDLLLEEKRFLAEQLYHVDSESDEPKLEISQKPEIDGTKRNAVVQTIHSISCDPPSILVKSYSAAQIEAVLREPSVDEPPVETTKSDINEELKAENEFLKDQANELNKCREKIETDGKTIQDLRLRIQSMERELMAAKNSKRASSS | not soluble |
| MADTSPRESKLNKQDQDLHLEIDETGLACKSEVKKRWLGARGTAGLYGNGKYYYEVTITSKGLCRVGWATLGGSLNIGKGLDSFGYGGTGMKSTHKKFDDYGLPFTLNDVIGCYLDLDSRTIWWSKNGEQFPAAFSIDVKYKNSNTCLFPAVLCQNSSLSVNFGSQPFKFPPGNQFTAVSDAPNENVNWWSYEEQNSFEHVVVKLPFAVEEDVHNEFRMHTKLMLTELKRTQCKQDKDGSIRRTLQPISKTICAFLNTDGGRLFLGVNDDKVIKGISMSKNMIYHFFGSLRHMCENFKPCSPLCRIKVSILEVIPVGVIKVKLRKADLLKEEAHDFPKLACHSVGGSFCDCFLEINKAPTKQYLLIIQVSPPNPNSRTTIFQNEEGLVYRRRMASNKCVYLDDLRRMMNEKNQVFVDLPDEARAEIDSFSKFD | not soluble |
| MADVLERVTKIIVDRLGVEETEVVPAASFKEDLGADSLDVVELVMQLEDEFEMEISDEDAEKIATVGDAVTYIESHL | not soluble |
| MADYADAVVTQESALTTSPGETVTLTCRSSTGAVTTSNYASWVQEKPDHLFTGLIGGTNNRAPGVPARFSGSLIGDKAALTITGAQTEDEAIYFCALWYSNHWVFGGGTKLTVLGGGGGSGGGGSGGGGSGGGGS | soluble |
| MAEASPQPGRYFCHCCSVEIVPRLPDYICPRCESGFIEELPEETRNTENGSAPSTAPTDQNRQPFENVDQHLFTLPQGYSQFAFGIFDDSFEIPTFPPGAQADDGRDPESRREREHQSRHRYGARQPRARLTARRATGRHEGVPTLEGIIQQLVNGIISPAAVPSLGLGPWGVLHSNPMDYAWGANGLDTIITQLLNQFENTGPPPADKEKIQALPTVPVTEEHVGSGLECPVCKEDYALGESVRQLPCNHLFHDSCIVPWLEQHDSCPVCRKSLTGQNTATNPPGLTGVGFSSSSSSSSSSSPSNENATSNS | soluble |
| MAEAYLEYLGKHDVLTKLHNRAFYSDELNRLERSALRPVSAIVIDLNGLKEANDKLGHDAGDALLRRVGEVLNGVVTAPNHAARIGGDEFAILLPGADKQVAAAMVDTVYELLKINNQFYSSAPLSLSLGVATTEAGETMESLVRRADMNMYEQKNAYYAALRNRSADNNDTTKGLEHHHHHH | soluble |
| MAEEPKGVPLSELSLQQLGELQKNCEQELNFFQESFNALKGLLTRNEKSISALDDVKIATAGHTALIPLSESLYIRAELSDPSKHLVEIGTGYFVELDREKAKAIFDRKKEHITKQVETVEGILKEKRRTRAYISDAFQTKVQSQLATMNTQ | not soluble |
| MAEHPIQGLMETAMESIKEMVDVNTIVGDAVQAPDGTVIIPISKVTFGFAAGGGEFASCCSVDEKGEDSSDDSSKPEIKFPFAGGSGAGVSINPVAFMVVGQGQIKLLPVNINSSLEKILDLIPEIIEKTKDSVKKNLKVKKEIKPGNGESCAKSSKEDENELEHHHHHH | soluble |
| MAEKTRYSDAELEEFRAIIMEKLELAQRDYDQLKMSLMGLDGNDTDDTSPTYKVLEEGANTLSKEETTRLAQRQLKFIQGLQAALVRIENKTYGICRETGKLIPAERLRAVPHATLSIEAKNSGKK | not soluble |
| MAELYDGPIVDAHHHFWDPQANYHPWLAEDAKIPFRYGDYSAIKRRYLPADYFGDVGAHRVVETVYVETEWDPRDPLGETRFVHHLAERHGAPHAVVAQAWLDAPDAAEVLAAQAGFARVRSVRHKPGGPQRPQQVGELRSLMSDERWRRGYAELARHGLHFDLQTPWWNLAEAACLARDFPDTLIVLNHAGLPSDRSEEGLAAWQRAMARFAECPNVALKISGIGQAGRRWSVEDNAWIVRESIALFGVERAMFASNFPVDSLCGSFDDIYGGFKRIVADLPYADQERLFHSNARRIYRTVPDTVRLQQASPDPRTSP | not soluble |
